Data reported in patent US12517114B2, “Primary gastrointestinal stromal tumor cell culture medium, culture method and application thereof” (PRECEDO PHARMACEUTICALS CO., LTD, priority 2021, dated 2026).

B1: fibroblast growth factor 10: receptor tyrosine kinase ligand, medium additive (R&D) (protein, UniProt O15520 38-208, looked up)
Fibroblast growth factor 10: QALGQDMVSPEATNSSSSSFSSPSSAGRHVRSYNHLQGDVRWRKLFSFTKYFLKIEKNGKVSGTKKENCPYSILEITSVEIGVVAVKAINSNYYLAMNKKGKLYGSKEFNNDCKLKERIEENGYNTYASFNWQHNGRQMYVALNGKGAPRRGQKTRRKNTSAHFLPMVVHS
B2: platelet-derived growth factor BB: receptor tyrosine kinase ligand, medium additive (R&D) (protein, UniProt P01127 82-190, looked up)
Platelet-derived growth …: SLGSLTIAEPAMIAECKTRTEVFEISRRLIDRTNANFLVWPPCVEVQRCSGCCNNRNVQCRPTQVQLRPVQVRKIEIVRKKPIFKKATVTLEDHLACKCETVAAARPVT

System: primary gastrointestinal stromal tumor cells (GIST-1, GIST-2, GIST-3, GIST-4)
Assay: Screening of factors added to the culture medium: cell count after 14 days of culture
Format: cell-based, human
Conditions: for Level of promoting cell proliferation: additive at the concentration of Table 1 in basic medium vs basic medium, 14 days, 2% oxygen, Collagen I coated plate, four patient samples
Experimental: Rat tail collagen type I (Collagen type I, manufactured by Corning Inc.) was diluted with ultrapure water in a ratio of 1:50 to prepare a collagen diluent. The collagen diluent was added 500 μl/well into a 24-well culture plate to completely cover the bottom of the culture plate wells. After standing in a incubator at 37° C. for 1 hour, the collagen diluent was removed to provide a culture plate coated with collagen.
First, a basic medium was prepared. To a commercial DMEM/F-12 medium, GlutaMAX-I (manufactured by Thermo Fisher […]) was added at a dilution ratio of 1:100, insulin-containing culture additive Insulin-Transferrin-Selenium-Ethanolamine (ITS-X, manufactured by Gibco) was added at a dilution ratio of 1:100, a ROCK kinase inhibitor Y27632 (manufactured by Sigma) was added at a final concentration of 10 µM, and commercial Primocin solution (manufactured by InvivoGen) (commercial product in concentration of 50 mg/ml) was added at a dilution ratio of 1:500, to obtain the basic medium.
Next, different types of additives (Table 1) were added to the basic medium to prepare culture mediums for gastrointestinal stromal tumor cells containing different components. The culture mediums with different components were added at a volume of 500 μl/well to 24-well plates coated with Collagen I, with 3 wells for per medium formulation. The GIST cells (GIST-1) isolated from GIST tissues in Section (1) of this example were inoculated in the 24-well culture plate coated with Collagen I at a cell density of 3×10^4/well, and were cultured under different medium formulations at 37° C., under 5% CO2 concentration and 2% oxygen concentration. The mediums were renewed every 3 days after the start of the culture. After 14 days of culture, cell counts were performed.
The tumor cells isolated from the other three gastrointestinal stromal tumor tissue samples were also cultured and counted in the same manner as above.

Molecule	Level of promoting cell proliferation	Effect on proliferation of primary gastrointestinal stromal tumor cells (in words) (additive in basic medium, in at least three cases)
B1	+	promote the proliferation
B2	+	–
